Columns and labels:
hippocampal neurocytes = test: Apoptosis-inhibitory effect in vivo, transient forebrain ischemia, MK administration after the ischemic injury; set-up: species or system Mongolian gerbil; conditions: counted seven days after injury
Description: MK (2.0 μg) was injected into the ventricle of a Mongolian gerbil transient forebrain ischemia model 2, 4, 6, 12, or 24 hours after the ischemic injury. The numbers of surviving hippocampal neurocytes were counted seven days after the ischemic injury (FIG. 16). When MK was administered at 2 hours after the injury, the number of surviving neurocytes decreased, compared to the Sham-op group, while it was considerably higher than the saline administrated group.
The numbers of surviving hippocampal neurocytes in the groups administered 2, 4, 6, 12, or 24 hours after the ligation were 120±36 (n=4), 90±23 (n=6), 80±13 (n=6), 86±34 (n=6), and 93±22 (n=4) cells/mm, respectively (FIG. 16).

[1] = system: renal uriniferous tubule cells; test: Inhibitory effect on cisplatin-induced apoptosis in renal uriniferous tubule cells of MK knockout mice; assay type: in vivo, mouse
Description: Heterozygous 129/Sv knockout mice (male, 8- to 12-week old) in which parts of exons 2 and 3 of the MK gene were destroyed (Biochemistry 7, 1996, Volume 68, pp. 1239, 4-p-1244) were divided into two groups; the saline administration group and the MK administration groups (14 individuals each). As a control group, the untreated wild-type mice (four individuals) were prepared. Dosage of MK was 200 μg/kg and that of saline was 10 ml/kg.
MK or saline was intraperitoneally administered to the mice in two groups in the morning and cisplatin 9.3 mg/kg was intraperitoneally administered to the mice in two groups in the afternoon of the same day (this day is Day 0).
In the morning of Day 1, MK or saline was interperitoneally administered to each mouse in the same manner as on […].
On Day 2, four mice were selected from each group (the untreated wild-type mice group and the two treated groups) to collect urine and whole blood. Clots in the collected blood were retracted for 1 hour at 37° C., and centrifuged (4° C., 8000 rpm, 10 min) to separate the serum. […]
Blood urea nitrogen (BUN) and serum creatinine frequently used as indexes of renal dysfunction in day-to-day diagnosis were measured and proteins in urine were simply quantified. […]
On Day 4, DNA fragmentation in the kidney paraffin sections representating strong damage was analyzed by the TUNEL method (In situ Apoptosis Detection Kit; TaKaRa).

B1: MK: midkine, a heparin-binding growth and differentiation factor; human MK protein (SEQ ID NO: 3; or recombinant, secreted by yeast) (protein, UniProt P21741 21-143, looked up)
Midkine: VAKKKDKVKKGGPGSECAEWAWGPCTPSSKDCGVGFREGTCGAQTQRIRCRVPCNWKKEFGADCKYKFENWGACDGGTGTKVRQGTLKKARYNAQCQETIRVTKPCTPKTKAKAKAKKGKGKD
numbers of surviving hippocampal neurocytes (hippocampal neurocytes; MK 2.0 μg into the ventricle 2 hours after the ligation): 120±36 cells/mm | numbers of surviving hippocampal neurocytes (hippocampal neurocytes; MK 2.0 μg into the ventricle 4 hours after the ligation): 90±23 cells/mm | numbers of surviving hippocampal neurocytes (hippocampal neurocytes; MK 2.0 μg into the ventricle 6 hours after the ligation): 80±13 cells/mm | numbers of surviving hippocampal neurocytes (hippocampal neurocytes; MK 2.0 μg into the ventricle 12 hours after the ligation): 86±34 cells/mm | numbers of surviving hippocampal neurocytes (hippocampal neurocytes; MK 2.0 μg into the ventricle 24 hours after the ligation): 93±22 cells/mm | number of TUNEL positive cells in kidney paraffin sections ([1]; Day 4, MK 200 μg/kg i.p., cisplatin 9.3 mg/kg i.p., versus saline administrated group): significantly decreased | renal dysfunction caused by cisplatin (BUN, serum creatinine, urine protein, HE sections) ([1]; MK 200 μg/kg i.p. daily, cisplatin 9.3 mg/kg i.p. on Day 0): effect of MK for relieving renal dysfunction caused by cisplatin was observed

Source: patent publication US20050079151A1, “Therapeutic agents for apoptosis-related diseases” (priority 1998, published 2005)
